Source: patent publication US20190060430A1 (published 2019)

Columns and labels:
Assay in all cases: cytokine release
[1] = molecular target: T1, TPTE peptide on HLA-DRB5*02:02 (human)
T1 peptide: KLIRRRVSENKRRYT

[2] = molecular target: T2, TPTE peptide on HLA-DRB4*01:01 (human)
T2 peptide: NWNLPPRRILFIKHFIIYS

[3] = molecular target: T3, TPTE peptide on HLA-DRB1*14:01 (human)
T3 peptide: KHFIIYSIPRYVRDLKIQI

[4] = molecular target: T4, TPTE peptide on HLA-DRB1*15:01 (human)
T4 peptide: YVAYFAQVKHLYNWNLPPR

[5] = molecular target: T5, TPTE peptide on HLA-DRB1*15:01 (human)
T5 peptide: ILFIKHFIIYSIPRY

[6] = molecular target: T6, TPTE peptide on HLA-B*35:01 (human)
T6 peptide: YPSDFAVEI

[7] = molecular target: T7, TPTE peptide on HLA-DRB1*14:01 (human)
T7 peptide: WLHTSFIENNRLYLPKNEL

[8] = molecular target: T8, TPTE peptide on HLA-DRB5*02:02 (human)
T8 peptide: IFFDIKLLRNIPRWTHLLR

[9] = molecular target: T9, TPTE peptide on HLA-DRB1*07:01 (human)
T9 peptide: ILADLIFTDSKLYIPLEYR

[10] = molecular target: T10, TPTE peptide on HLA-DRB1*15:01 (human)
T10 peptide: DSKLYIPLEYRSISLAIAL

[11] = molecular target: T11, TPTE peptide on HLA-DRB1*14:01 (human)
T11 peptide: SPISESVLARLSKFEVEDA

[12] = molecular target: T12, TPTE peptide on HLA-DRB3*03:01 (human)
T12 peptide: IKLLRNIPRWTHLLR

[13] = molecular target: T13, TPTE peptide on HLA-DRB1*16:01 (human)
T13 peptide: NHYRVYNLCSERAYD

[14] = molecular target: T14, TPTE peptide on HLA-DRB1*13:01 (human)
T14 peptide: RFLDKKHRNHYRVYN

[15] = molecular target: T15, NY-ESO-1 peptide on HLA-DRB5*02:02 (human)
T15 peptide: SGNILTIRLTAADHRQLQL

[16] = molecular target: T16, TPTE peptide on HLA-DRB1*13:01 (human)
T16 peptide: KLIRRRVSENKRRYT

B1: TCRCD4-TPT#33 (TCR, V domains shown)
Valpha: DQQVKQNSPSLSVQEGRISILNCDYTNSMFDYFLWYKKYPAEGPTFLISISSIKDKNEDGRFTVFLNKSAKHLSLHIVPSQPGDSAVYFCAARSYGGSQGNLIFGKGTKLSVKP
Vbeta: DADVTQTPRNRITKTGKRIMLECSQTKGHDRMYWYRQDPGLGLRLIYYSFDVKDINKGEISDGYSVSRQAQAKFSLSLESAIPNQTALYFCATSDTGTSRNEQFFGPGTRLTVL
binding result [1]: recognises

B2: TCRCD4-TPT#4 (TCR, V domains shown)
Valpha: AQKITQTQPGMFVQEKEAVTLDCTYDTSDPSYGLFWYKQPSSGEMIFLIYQGSYDQQNATEGRYSLNFQKARKSANLVISASQLGDSAMYFCATASNFGNEKLTFGTGTRLTIIP
Vbeta: SAVISQKPSRDICQRGTSLTIQCQVDSQVTMMFWYRQQPGQSLTLIATANQGSEATYESGFVIDKFPISRPNLTFSTLTVSNMSPEDSSIYLCSVDRDREDGYTFGSGTRLTVV
binding result [2]: recognises

B3: TCRCD4-TPT#5 (TCR, V domains shown)
Valpha: AQTVTQSQPEMSVQEAETVTLSCTYDTSESDYYLFWYKQPPSRQMILVIRQEAYKQQNATENRFSVNFQKAAKSFSLKISDSQLGDAAMYFCAYSRTSGTYKYIFGTGTRLKVLA
Vbeta: ETGVTQTPRHLVMGMTNKKSLKCEQHLGHNAMYWYKQSAKKPLELMFVYNFKEQTENNSVPSRFSPECPNSSHLFLHLHTLQPEDSALYLCASSQEISGSSYEQYFGPGTRLTVT
binding result [3]: recognises

B4: TCRCD4-TPT#49 (TCR, V domains shown)
Valpha: AQTVTQSQPEMSVQEAETVTLSCTYDTSENNYYLFWYKQPPSRQMILVIRQEAYKQQNATENRFSVNFQKAAKSFSLKISDSQLGDTAMYFCAFMKNTGNQFYFGTGTSLTVIP
Vbeta: DGGITQSPKYLFRKEGQNVTLSCEQNLNHDAMYWYRQDPGQGLRLIYYSQIVNDFQKGDIAEGYSVSREKKESFPLTVTSAQKNPTAFYLCASRRLDGLGIGELFFGEGSRLTVL
binding result [4]: recognises

B5: TCRCD4-TPT#45 (TCR, V domains shown)
Valpha: GESVGLHLPTLSVQEGDNSIINCAYSNSASDYFIWYKQESGKGPQFIIDIRSNMDKRQGQRVTVLLNKTVKHLSLQIAATQPGDSAVYFCAETRQGGKLIFGQGTELSVKP
Vbeta: GAVVSQHPSWVICKSGTSVKIECRSLDFQATTMFWYRQFPKQSLMLMATSNEGSKATYEQGVEKDKFLINHASLTLSTLTVTSAHPEDSSFYICSAPPGVTVRAYGYTFGSGTRLTVV
binding result [5]: recognises

B6: TCRCD8-TPT#3 (TCR, V domains shown)
Valpha: TQLLEQSPQFLSIQEGENLTVYCNSSSVFSSLQWYRQEPGEGPVLLVTVVTGGEVKKLKRLTFQFGDARKDSSLHITAAQPGDTGLYLCAGAQGQKLLFARGTMLKVDL
Vbeta: DTGVSQNPRHKITKRGQNVTFRCDPISEHNRLYWYRQTLGQGPEFLTYFQNEAQLEKSRLLSDRFSAERPKGSFSTLEIQRTEQGDSAMYLCASSHLAGGNTGELFFGEGSRLTVL
binding result [6]: recognises

B7: TCRCD4-TPT#13 (TCR, V domains shown)
Valpha: EDQVTQSPEALRLQEGESSSLNCSYTVSGLRGLFWYRQHPGKGPEFLFTLYSAGEEKEKERLKATLTKKESFLHITAPKPEDSATYLCAVQASNSGNTPLVFGKGTRLSVIA
Vbeta: DGGITQSPKYLFRKEGQNVTLSCEQNLNHDAMYWYRQDPGQGLRLIYYSQIVNDFQKGDIAEGYSVSREKKESFPLTVTSAQKNPTAFYLCASSAPHQRGTNEQFFGPGTRLTVL
binding result [7]: recognises

B8: TCRCD4-TPT#17 (TCR, V domains shown)
Valpha: DQQVKQNSPSLSVQEGRISILNCDYTNSMFDYFLWYKKYPAEGPTFLISISSIKDKNEDGRFTVFLNKSAKHLSLHIVPSQPGDSAVYFCAASPNTGNQFYFGTGTSLTVIP
Vbeta: GAGVSQSPSNKVTEKGKDVELRCDPISGHTALYWYRQSLGQGLEFLIYFQGNSAPDKSGLPSDRFSAERTGGSVSTLTIQRTQQEDSAVYLCASSLTGGPYEQYFGPGTRLTVT
binding result [8]: recognises

B9: TCRCD4-TPT#11 (TCR, V domains shown)
Valpha: SQQGEEDPQALSIQEGENATMNCSYKTSINNLQWYRQNSGRGLVHLILIRSNEREKHSGRLRVTLDTSKKSSSLLITASRAADTASYFCAGYNTNAGKSTFGDGTTLTVKP
Vbeta: NAGVTQTPKFRILKIGQSMTLQCAQDMNHNYMYWYRQDPGMGLKLIYYSVGAGITDKGEVPNGYNVSRSTTEDFPLRLELAAPSQTSVYFCASSFGQVWADTQYFGPGTRLTVL
binding result [9]: recognises

B10: TCRCD4-TPT#52 (TCR, V domains shown)
Valpha: AQSVTQPDIHITVSEGASLELRCNYSYGATPYLFWYVQSPGQGLQLLLKYFSGDTLVQGIKGFEAEFKRSQSSFNLRKPSVHWSDAAEYFCAVGAQGAQKLVFGQGTRLTINP
Vbeta: NAGVTQTPKFQVLKTGQSMTLQCAQDMNHNSMYWYRQDPGMGLRLIYYSASEGTTDKGEVPNGYNVSRLNKREFSLRLESAAPSQTSVYFCASSEAGGSSFEQYFGPGTRLTVT
binding result [10]: recognises

B11: TCRCD4-TPT#6 (TCR, V domains shown)
Valpha: QKEVEQDPGPLSVPEGAIVSLNCTYSNSAFQYFMWYRQYSRKGPELLMYTYSSGNKEDGRFTAQVDKSSKYISLFIRDSQPSDSATYLCAMSAVSFGNVLHCGSGTQVIVLP
Vbeta: ETGVTQSPTHLIKTRGQQVTLRCSSQSGHNTVSWYQQALGQGPQFIFQYYREEENGRGNFPPRFSGLQFPNYSSELNVNALELDDSALYLCASSFGENTIYFGEGSWLTVV
binding result [11]: recognises

B12: TCRCD4-TPT#27 (TCR, V domains shown)
Valpha: GENVEQHPSTLSVQEGDSAVIKCTYSDSASNYFPWYKQELGKRPQLIIDIRSNVGEKKDQRIAVTLNKTAKHFSLHITETQPEDSAVYFCAALYSGGGADGLTFGKGTHLIIQP
Vbeta: DGGITQSPKYLFRKEGQNVTLSCEQNLNHDAMYWYRQDPGQGLRLIYYSQIVNDFQKGDIAEGYSVSREKKESFPLTVTSAQKNPTAFYLCASSIGGGVNTEAFFGQGTRLTVV
binding result [12]: recognises

B13: TCRCD4-TPT#38 (TCR, V domains shown)
Valpha: ELKVEQNPLFLSMQEGKNYTIYCNYSTTSDRLYWYRQDPGKSLESLFVLLSNGAVKQEGRLMASLDTKARLSTLHITAAVHDLSATYFCAVGFRGSTLGRLYFGRGTQLTVWP
Vbeta: DAGVTQSPTHLIKTRGQHVTLRCSPISGHKSVSWYQQVLGQGPQFIFQYYEKEERGRGNFPDRFSARQFPNYSSELNVNALLLGDSALYLCASSWGQGNEKLFFGSGTQLSVL
binding result [13]: recognises

B14: TCRCD4-TPT#42 (TCR, V domains shown)
Valpha: GQQVMQIPQYQHVQEGEDFTTYCNSSTTLSNIQWYKQRPGGHPVFLIQLVKSGEVKKQKRLTFQFGEAKKNSSLHITATQTTDVGTYFCAGSTGGGNKLTFGTGTQLKVEL
Vbeta: GAGVSQSPRYKVAKRGQDVALRCDPISGHVSLFWYQQALGQGPEFLTYFQNEAQLDKSGLPSDRFFAERPEGSVSTLKIQRTQQEDSAVYLCASSDFYEQYFGPGTRLTVT
binding result [14]: recognises

B15: TCRCD4-NY#13 (TCR, V domains shown)
Valpha: KQEVTQIPAALSVPEGENLVLNCSFTDSAIYNLQWFRQDPGKGLTSLLLIQSSQREQTSGRLNASLDKSSGRSTLYIAASQPGDSATYLCAVPTDSWGKLQFGAGTQVVVTP
Vbeta: DTGVSQDPRHKITKRGQNVTFRCDPISEHNRLYWYRQTLGQGPEFLTYFQNEAQLEKSRLLSDRFSAERPKGSFSTLEIQRTEQGDSAMYLCASSSKLTGIPEGTDTQYFGPGTRLTVL
binding result [15]: recognises

B16: TCRCD4-TPT#51 (TCR, V domains shown)
Valpha: GENVEQHPSTLSVQEGDSAVIKCTYSDSASNYFPWYKQELGKRPQLIIDIRSNVGEKKDQRIAVTLNKTAKHFSLHITETQPEDSAVYFCAALSGGSNYKLTFGKGTLLTVNP
Vbeta: EAGVTQFPSHSVIEKGQTVTLRCDPISGHDNLYWYRRVMGKEIKFLLHFVKESKQDESGMPNNRFLAERTGGTYSTLKVQPAELEDSGVYFCASSQQENTEAFFGQGTRLTVV
binding result [16]: recognises
